{"source": "patent US20030017568A1", "about": "“Smooth muscle myosin phosphatase associated kinase” (priority 2001, published 2003)", "molecules": {"B1": {"name": "rN-ZIP^1-320 kinase: recombinant 38 kDa GST-fusion protein of the N-terminal region (1-320) of ZIP kinase, expressed in E. coli, constitutively active (protein, UniProt O43293 1-320, looked up, fragment)", "chain": "MSTFRQEDVEDHYEMGEELGSGQFAIVRKCRQKGTGKEYAAKFIKKRRLSSSRRGVSREEIEREVNILREIRHPNIITLHDIFENKTDVVLILELVSGGELFDFLAEKESLTEDEATQFLKQILDGVHYLHSKRIAHFDLKPENIMLLDKNVPNPRIKLIDFGIAHKIEAGNEFKNIFGTPEFVAPEIVNYEPLGLEADMWSIGVITYILLSGASPFLGETKQETLTNISAVNYDFDEEYFSNTSELAKDFIRRLLVKDPKRRMTIAQSLEHSWIKAIRRRNVRGEDSGRKPERRRLKTTRLKEYTIKSHSSLPPNNSYA", "modifications": "GST fusion"}}, "tested_on": "permealized rabbit longitudinal ileum smooth muscle strips", "assay": "Force in permeabilized rabbit longitudinal ileum smooth muscle strips (Ca2+-sensitization)", "protocol": "Instead, when rN-ZIP^1-320 kinase is added a 40% increase in muscular force is produced at the same submaximal calcium concentration."}
{"molecule": "B1", "values": [{"measurement": "Increase in muscular force", "setting": "at the same submaximal calcium concentration", "value": 40, "unit": "%"}, {"measurement": "Contraction in the absence of calcium", "setting": "permeabilized ileum strips, no calcium", "value": "does not cause contraction"}]}
